In article PMC4681436:
“And” between values parts separate entries of the source, which are not always exact repeats. Equal values may be shown once.

Key:
[1] = target: AidC, N-acyl-L-homoserine lactone (AHL) lactonase from Chryseobacterium sp. strain StRB126 (Chryseobacterium sp. strain StRB126); experiment: SEC-MALS
CCCCC(=O)N[C@H]1CCOC1=O = experiment: purified protein; settings: 1 mM Hepes pH 7.5, 30 μM ZnSO4, 1% methanol, dizinc enzyme
[2] = system: CCCCCCCCCCCC(=O)N[C@H]1CCOC1=O; experiment: purified protein; settings: 1 mM Hepes pH 7.5, 30 μM ZnSO4, 1% methanol, dizinc enzyme
[3] = system: CCCCCCCCCC(=O)N[C@H]1CCOC1=O; experiment: purified protein; settings: 1 mM Hepes pH 7.5, 30 μM ZnSO4, 1% methanol, dizinc enzyme
CC(C)(C)OC(=O)NC1CCOC1=O = experiment: purified protein; settings: 1 mM Hepes pH 7.5, 30 μM ZnSO4, 1% methanol, dizinc enzyme
[4] = system: CCCCCC(=O)CC(=O)N[C@H]1CCOC1=O; experiment: purified protein; settings: 1 mM Hepes pH 7.5, 30 μM ZnSO4, 1% methanol, dizinc enzyme
[5] = system: CCCCCCCC(=O)N[C@H]1CCOC1=O; experiment: purified protein; settings: 1 mM Hepes pH 7.5, 30 μM ZnSO4, 1% methanol, dizinc enzyme
[6] = system: CCCCCCC(=O)N[C@H]1CCOC1=O; experiment: purified protein; settings: 1 mM Hepes pH 7.5, 30 μM ZnSO4, 1% methanol, dizinc enzyme
CCCC(=O)N[C@H]1CCOC1=O = experiment: purified protein; settings: 1 mM Hepes pH 7.5, 30 μM ZnSO4, 1% methanol, dizinc enzyme
CCCCCC(=O)N[C@H]1CCOC1=O = experiment: purified protein; settings: 1 mM Hepes pH 7.5, 30 μM ZnSO4, 1% methanol, dizinc enzyme
[7] = system: O=C(/C=C/c1ccccc1)N[C@H]1CCOC1=O; experiment: purified protein; settings: 1 mM Hepes pH 7.5, 30 μM ZnSO4, 1% methanol, dizinc enzyme

“AidC, N-acyl-L-homoserine lactone (AHL) lactonase from Chryseobacterium sp. strain StRB126 (enzyme)” was tested, and the stoichiometry N [1] was 2 and 4.

With AidC (Chryseobacterium sp. StRB126) the Km (CCCCC(=O)N[C@H]1CCOC1=O) was 130 ± 20 µM, the kcat (CCCCC(=O)N[C@H]1CCOC1=O) was 57 ± 3 s⁻¹ and the kcat/Km (CCCCC(=O)N[C@H]1CCOC1=O) was 440000 M⁻¹ s⁻¹. For the same substance, the Km [2] was 7 ± 4 µM, the kcat [2] was 0.4 ± 0.05 s⁻¹ and the kcat/Km [2] was 57000 M⁻¹ s⁻¹. It also gave a Km [3] of 12 ± 4 µM, a kcat [3] of 5.2 ± 0.4 s⁻¹ and a kcat/Km [3] of 430000 M⁻¹ s⁻¹. The Km (CC(C)(C)OC(=O)NC1CCOC1=O) was 740 ± 70 µM, the kcat (CC(C)(C)OC(=O)NC1CCOC1=O) was 44 ± 1 s⁻¹ and the kcat/Km (CC(C)(C)OC(=O)NC1CCOC1=O) was 59000 M⁻¹ s⁻¹. The Km [4] was 130 ± 20 µM, the kcat [4] was 28 ± 1 s⁻¹ and the kcat/Km [4] was 220000 M⁻¹ s⁻¹. The Km [5] was 83 ± 10 µM, the kcat [5] was 45 ± 3 s⁻¹ and the kcat/Km [5] was 540000 M⁻¹ s⁻¹. The Km [6] was 47 ± 5 µM, the kcat [6] was 80 ± 2 s⁻¹ and the kcat/Km [6] was 1.7e+06 M⁻¹ s⁻¹. The Km (CCCC(=O)N[C@H]1CCOC1=O) was 470 ± 60 µM, the kcat (CCCC(=O)N[C@H]1CCOC1=O) was 39 ± 2 s⁻¹ and the kcat/Km (CCCC(=O)N[C@H]1CCOC1=O) was 83000 M⁻¹ s⁻¹. For the same substance, the Km (CCCCCC(=O)N[C@H]1CCOC1=O) was 61 ± 4 µM, the kcat (CCCCCC(=O)N[C@H]1CCOC1=O) was 59 ± 1 s⁻¹ and the kcat/Km (CCCCCC(=O)N[C@H]1CCOC1=O) was 970000 M⁻¹ s⁻¹. For the same substance, the Km [7] was 470 ± 80 µM, the kcat [7] was 25 ± 2 s⁻¹ and the kcat/Km [7] was 53000 M⁻¹ s⁻¹.
